B1: CDC25A (parent)
chain: QLIDPDENKENEAFEFKKPVRPVS

Variants of: B1
Test: protein stability index of a GFP-peptide fusion (GPS, HEK-293T) (PSI 1-6); higher = more stable
Details: c terminus: a fixed tail appended
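Note: lentivirally expressed fusions sorted by FACS into six bins by GFP to DsRed ratio, PSI derived from sequencing read proportions per bin multiplied by bin number.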

| Variant | protein stability index |
| --- | --- |
| QLIDPDENAENEAFEFKKPVRPVS [K9A] | 4.37 |
| QLIDPDENEENEAFEFKKPVRPVS [K9E] | 4.62 |
| QLIDPDENSENEAFEFKKPVRPVS [K9S] | 4.39 |
| QLIDPDENGENEAFEFKKPVRPVS [K9G] | 4.2 |
| QLIDPDENYENEAFEFKKPVRPVS [K9Y] | 5.01 |
| QLIDPDENDENEAFEFKKPVRPVS [K9D] | 4.97 |
| QLIDPDENRENEAFEFKKPVRPVS [K9R] | 4.21 |
| QLIDPDENWENEAFEFKKPVRPVS [K9W] | 3.82 |
| QLIDPDENHENEAFEFKKPVRPVS [K9H] | 4.18 |
| QLIDPDENNENEAFEFKKPVRPVS [K9N] | 4.65 |
| QLIDPDENQENEAFEFKKPVRPVS [K9Q] | 4.74 |
| QLIDPDENPENEAFEFKKPVRPVS [K9P] | 4.62 |
| QLIDPDENLENEAFEFKKPVRPVS [K9L] | 3.51 |
| QLIDPDENFENEAFEFKKPVRPVS [K9F] | 4.04 |
| QLIDPDENTENEAFEFKKPVRPVS [K9T] | 4 |
| QLIDPDENVENEAFEFKKPVRPVS [K9V] | 4.83 |
| QLIDPDENCENEAFEFKKPVRPVS [K9C] | 4.54 |
| QLIDPDENMENEAFEFKKPVRPVS [K9M] | 4.09 |
| QLIDPDENIENEAFEFKKPVRPVS [K9I] | 3.89 |
| QLIDPMENKENEAFEFKKPVRPVS [D6M] | 4.14 |
| QLIDPSENKENEAFEFKKPVRPVS [D6S] | 3.74 |
| QLIDPWENKENEAFEFKKPVRPVS [D6W] | 3.59 |
| QLIDPVENKENEAFEFKKPVRPVS [D6V] | 3.83 |
| QLIDPLENKENEAFEFKKPVRPVS [D6L] | 3.23 |

| Variant | protein stability index |
| --- | --- |
| QLIDPYENKENEAFEFKKPVRPVS [D6Y] | 4.02 |
| QLIDPQENKENEAFEFKKPVRPVS [D6Q] | 4.6 |
| QLIDPNENKENEAFEFKKPVRPVS [D6N] | 4.4 |
| QLIDPRENKENEAFEFKKPVRPVS [D6R] | 3.58 |
| QLIDPPENKENEAFEFKKPVRPVS [D6P] | 4.53 |
| QLIDPKENKENEAFEFKKPVRPVS [D6K] | 3.87 |
| QLIDPTENKENEAFEFKKPVRPVS [D6T] | 3.87 |
| QLIDPDEAKENEAFEFKKPVRPVS [N8A] | 4.31 |
| QLIDPDEFKENEAFEFKKPVRPVS [N8F] | 4.08 |
| QLIDPDEHKENEAFEFKKPVRPVS [N8H] | 4.59 |
| QLIDPDELKENEAFEFKKPVRPVS [N8L] | 4.52 |
| QLIDPDEVKENEAFEFKKPVRPVS [N8V] | 4.94 |
| QLIDPDEPKENEAFEFKKPVRPVS [N8P] | 4.28 |
| QLIDPDERKENEAFEFKKPVRPVS [N8R] | 4.86 |
| QLIDPDEMKENEAFEFKKPVRPVS [N8M] | 4.09 |
| QLIDPDEDKENEAFEFKKPVRPVS [N8D] | 4.28 |
| QLIDPDEQKENEAFEFKKPVRPVS [N8Q] | 4.95 |
| QLIDPDEIKENEAFEFKKPVRPVS [N8I] | 4.7 |
| QLIDPDEGKENEAFEFKKPVRPVS [N8G] | 5.06 |
| QLIDPDESKENEAFEFKKPVRPVS [N8S] | 4.05 |
| QLIDPDEEKENEAFEFKKPVRPVS [N8E] | 3.95 |
| QLIDPDEYKENEAFEFKKPVRPVS [N8Y] | 3.59 |
| QLIDPDECKENEAFEFKKPVRPVS [N8C] | 4.45 |
| QLIDPDEKKENEAFEFKKPVRPVS [N8K] | 4.5 |

| Variant | protein stability index |
| --- | --- |
| QLIDPDETKENEAFEFKKPVRPVS [N8T] | 4.61 |
| QLIDPDYNKENEAFEFKKPVRPVS [E7Y] | 3.45 |
| QLIDPDVNKENEAFEFKKPVRPVS [E7V] | 4.11 |
| QLIDPDINKENEAFEFKKPVRPVS [E7I] | 4.06 |
| QLIDPDFNKENEAFEFKKPVRPVS [E7F] | 3.63 |
| QLIDPDDNKENEAFEFKKPVRPVS [E7D] | 3.97 |
| QLIDPDRNKENEAFEFKKPVRPVS [E7R] | 3.92 |
| QLIDPDWNKENEAFEFKKPVRPVS [E7W] | 3.3 |
| QLIDPDQNKENEAFEFKKPVRPVS [E7Q] | 3.58 |
| QLIDPDCNKENEAFEFKKPVRPVS [E7C] | 4 |
| QLIDPDNNKENEAFEFKKPVRPVS [E7N] | 3.42 |
| QLIDPDKNKENEAFEFKKPVRPVS [E7K] | 4.59 |
| QLIDPDGNKENEAFEFKKPVRPVS [E7G] | 3.02 |
| QLIDPDPNKENEAFEFKKPVRPVS [E7P] | 4.68 |
| QLIDPDANKENEAFEFKKPVRPVS [E7A] | 4.25 |
| QLIDPDTNKENEAFEFKKPVRPVS [E7T] | 4.15 |
| QLIDPDMNKENEAFEFKKPVRPVS [E7M] | 3.95 |
| QLIDPDHNKENEAFEFKKPVRPVS [E7H] | 3.94 |
| QLIDPDSNKENEAFEFKKPVRPVS [E7S] | 3.37 |
| QLIDPDLNKENEAFEFKKPVRPVS [E7L] | 3.33 |
| QLIDPDENKSNEAFEFKKPVRPVS [E10S] | 4.2 |
| QLIDPDENKTNEAFEFKKPVRPVS [E10T] | 4.3 |
| QLIDPDENKFNEAFEFKKPVRPVS [E10F] | 3.12 |
| QLIDPDENKQNEAFEFKKPVRPVS [E10Q] | 4.29 |

| Variant | protein stability index |
| --- | --- |
| QLIDPDENKINEAFEFKKPVRPVS [E10I] | 4.13 |
| QLIDPDENKANEAFEFKKPVRPVS [E10A] | 4.25 |
| QLIDPDENKCNEAFEFKKPVRPVS [E10C] | 3.84 |
| QLIDPDENKDNEAFEFKKPVRPVS [E10D] | 3.98 |
| QLIDPDENKYNEAFEFKKPVRPVS [E10Y] | 4.78 |
| QLIDPDENKNNEAFEFKKPVRPVS [E10N] | 3.78 |
| QLIDPDENKLNEAFEFKKPVRPVS [E10L] | 3.97 |
| QLIDPDENKRNEAFEFKKPVRPVS [E10R] | 4.43 |
| QLIDPDENKGNEAFEFKKPVRPVS [E10G] | 4.33 |
| QLIDPDENKKNEAFEFKKPVRPVS [E10K] | 4.35 |
| QLIDPDENKPNEAFEFKKPVRPVS [E10P] | 3.1 |
| QLIDPDENKMNEAFEFKKPVRPVS [E10M] | 3.71 |
| QLIDPDENKVNEAFEFKKPVRPVS [E10V] | 3.36 |
| QLIDPDENKWNEAFEFKKPVRPVS [E10W] | 4.02 |
| QLIDPDENKEAEAFEFKKPVRPVS [N11A] | 3.81 |
| QLIDPDENKEEEAFEFKKPVRPVS [N11E] | 4.22 |
| QLIDPDENKEDEAFEFKKPVRPVS [N11D] | 4.68 |
| QLIDPDENKELEAFEFKKPVRPVS [N11L] | 4.65 |
| QLIDPDENKEFEAFEFKKPVRPVS [N11F] | 4.02 |
| QLIDPDENKEKEAFEFKKPVRPVS [N11K] | 4.56 |
| QLIDPDENKECEAFEFKKPVRPVS [N11C] | 4.23 |
| QLIDPDENKEIEAFEFKKPVRPVS [N11I] | 4.53 |
